Measurements published in PMC10454455.

Experiments:
[1] = biological target: CH505 T/F UFO Env trimer (HIV-1 (subject CH505)); experiment: native gel or EMSA; blue native gel (NativePAGE 3-12% Bis-Tris) of the fractions collected from SEC
[2] = biological target: CH505 T/F UFO Env trimer (HIV-1 (subject CH505)); experiment: SEC; lectin-purified Env proteins separated on a Superdex 200 Increase 10/300 GL column

Work on CH505 T/F UFO Env trimer yielded a stoichiometry N [1] of 3 and a stoichiometry N [2] of 3.
